Literature values in paper PMC3985698.

Target: Bad (Homo sapiens) (UniProt Q92934)
Settings: cited from earlier work

Sequence of UniProt Q92934 (Q92934 whole entry): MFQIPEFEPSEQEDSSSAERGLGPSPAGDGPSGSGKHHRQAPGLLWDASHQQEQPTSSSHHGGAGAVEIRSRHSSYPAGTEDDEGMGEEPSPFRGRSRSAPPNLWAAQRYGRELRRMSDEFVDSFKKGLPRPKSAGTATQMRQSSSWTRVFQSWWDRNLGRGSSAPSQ

For Bcl-xL (from UniProt Q07817), the Kd is listed as 0.6 nM.
